The test system of one series is CD1 strain albino mice. As to the kind of experiment: Toxicity and lethality tests in mice (intraperitoneal). In kind it is in vivo, Mus musculus. Details: key to Toxicity: Non-toxic: “non-toxic” when the mice exhibited normal physiological and behavioral patterns indistinguishable from the control group; Toxic: “toxic” when the animals developed signs of intoxication, such as excitability, excessive salivation, transient paralysis, breathing difficulty, diarrhea, impaired coordination or movement, or excessive tearing. These symptoms would appear after administration but fully resolve within 24 h without lasting effects; Lethal: “lethal” when the mice showed severe manifestations of intoxication, including progressive paralysis, marked respiratory distress, convulsions, or complete loss of mobility, leading to death during the observation period as a direct consequence of exposure. As to conditions: 20 g CD1 mice; for symptoms in affected animals / time to death after injection / lethality in murine models: 30 µg in 100 µL PBS; for lethality in murine models / Toxicity: monitored 24 h, in triplicate; for Toxicity: 30 µg of each fraction in 100 µL PBS. On the procedure: Toxicity assays. Toxicity and lethality tests of FPLC and HPLC fractions containing the toxins were conducted on CD1 strain albino mice (Mus musculus) weighing 20 g. The mice received intraperitoneal injections of 30 µg of each fraction diluted in 100 µL of Phosphate-buffered saline (PBS), while control mice were injected with sterile water. The mice were monitored for 24 h. […] A treatment was categorized as “toxic” when the animals developed signs of intoxication, such as excitability, excessive salivation, transient paralysis, breathing difficulty, diarrhea, impaired coordination or movement, or excessive tearing. These symptoms would appear after administration but fully resolve within 24 h without lasting effects. […] The experiments were conducted in triplicate. The Bioethics Committee approved the Animal Welfare protocol used in this study (Project 413).

In the next series the test system is hNav 1.2. The series is described as follows: Patch-clamp macroscopic sodium currents, hNav1.2 in HEK cells. It is filed as cell-based, human. The note with it: 200 nM toxin; for I/Imax (residual peak current) / slope of activation after toxin / V0.5 of activation after toxin / slope of inactivation after toxin / V0.5 of inactivation after toxin: mean ± SE of 5 cells (3–5 cells); for slope of activation after toxin: control 5.4± 0.3 (Chirp7 cells), 7.6 ± 0.4 (Chirp9 cells); for slope of activation after toxin / slope of inactivation after toxin / V0.5 of inactivation after toxin: Chirp9 value marked * (p<0.05); for V0.5 of activation after toxin: control -21.1 ± 0.4 (Chirp7 cells), -26.5 ± 0.5 (Chirp9 cells); for slope of inactivation after toxin / V0.5 of inactivation after toxin: steady-state inactivation; for slope of inactivation after toxin: control 6 ± 0.2 (Chirp7 cells), 5.6 ± 0.2 (Chirp9 cells); for V0.5 of inactivation after toxin: control -56.1 ± 0.2 (Chirp7 cells), -55.5 ± 0.3 (Chirp9 cells). The method, then: Recordings of macroscopic currents from sodium channels. Human voltage-gated sodium channels (hNav 1.1, hNav 1.2 and hNa 1.6) were stably expressed in HEK cells. Cells were maintained at 37 ◦C with 5% CO2 in a humidified atmosphere. The growth medium consisted of high-glucose Dulbecco’s Modified Eagle Medium (DMEM, Sigma Aldrich, Naucalpan de Juarez, Estado de Mexico, Mexico), supplemented with 10% Fetal Bovine Serum (ByProductos, Guadalajara, Jalisco, Mexico) and 500 μg/mL of the antibiotic G418 (Sigma Aldrich, Naucalpan de Juarez, Estado de Mexico, Mexico). The extracellular solution was composed of (in mM): 130 NaCl, 5 KCl, 2 CaCl2, 2 MgCl2, 10 HEPES, and 5 glucose, with the pH adjusted to 7.3 using NaOH. The intracellular solution contained (in mM): 105 CsF, 27 CsCl, 5 NaCl, 2 MgCl2, 10 EGTA, and 10 HEPES, with the pH also adjusted to 7.3 with CsOH. Solutions were delivered to the patched cell via an active perfusion system connected to a variable-speed syringe pump (Model A-99, Razel Scientific Instruments, Fairfax, VT, USA), with a perfusion rate of approximately 1 μL/s. Patch pipettes were made from borosilicate glass capillaries (Warner Instruments, Hamden, CT, USA) using a vertical puller (Model P-30, Sutter Instrument, Novato, CA, USA). The pipettes were filled with the internal solution and had resistance ranging from 1.5 and 3 MΩ. Sodium currents were elicited by 100 ms depolarization ranging from −110 to 30 mV in 10 mV steps, followed by a fully activating step at −10 mV for 50 ms. To better appreciate the effects of scorpion β-sodium toxins, channels were primed by means of a 5 ms depolarization at 50 mV, applied 50 ms before the depolarization steps, as previously described in Cestele et al. 1998 [17]. To ensure complete recovery from inactivation, cells were maintained at −120 mV for 280 ms before each step, while holding potential was set at −100 mV. Currents were acquired using a MultiClamp 700A amplifier and a DigiData 1440A digitizer (Molecular Devices, CA, USA).
For the activation curve, conductance (G) was calculated from current (I) elicited during depolarization steps by means of the equation G = I/(Vm − ENa), where I is the current elicited at membrane potential Vm, and ENa is the reversal potential of Na^+ ions, calculated experimentally for each cell. Conductance was normalized to its maximal level and plotted against the corresponding membrane potential. For the steady-state inactivation curve, currents elicited at −10 mV (after preconditioning depolarization from −110 to 30 mV) were plotted against the preconditioning potentials. Data from activation and from steady-state inactivation were fitted using a Boltzmann equation: y = A2 + (A1 − A2)/(1 + exp((x − x0)/dx)) where A1 is the initial value, A2 is the final value, x0 is the potential of half-activation (or half-inactivation) and dx is the slope. […]
Figure S1. Recordings of macroscopic currents from sodium channels. Sodium currents in B) were elicited by the stimulation protocol depicted in A): currents were elicited by 100 ms depolarization ranging from -110 to 30 mV in 10 mV steps, followed by a fully activating step at -10 mV for 50 ms.
A 5 ms depolarization at 50 mV was applied 50 ms before the depolarization steps to primed the channels. Peak currents obtained during the step depolarization from -110 to 30 mV (C and D, black circle in control and open circle after toxin application) were used to calculate the conductance and construct the activation curves. Currents recorded during the step at -10 mV (C and D, black square in control and open square for the toxin), were used to construct the inactivation curves. […]

B1: Chirp7 (peptide)
chain: KEGYLVNHSTGCKYECFKLGDNDYCLRECRQQYGKGAGGYCYAFGCWCTHLYEQAVVWPLPKKTCN-NH2
modifications: disulfide (positions not given here); also: four disulfide bridges, pairing not given here
In the case of B1, in the series with CD1 strain albino mice, the “symptoms in affected animals” value was “hyperexcitability, tremors, piloerection, hypersalivation, transient paralysis, dyspnea, motor incoordination, severe respiratory distress, and, ultimately, death”; the “time to death after injection” value is on record as “approximately 20 min”; the “lethality in murine models” value is “pronounced lethality”; the Toxicity entry is listed as “Lethal”. In addition, the “lethality in murine models” value in the series on CD1 strain albino mice (listed as FII.7) is “particularly lethal effects”. In addition, in the series with hNav 1.2, the “I/Imax (residual peak current)” value is 1 ± 0.02, the “slope of activation after toxin” value is given as 5.9 ± 0.3, the “V0.5 of activation after toxin” value is -22 ± 0.4 mV and the “slope of inactivation after toxin” value worked out at 6.2 ± 0.2. Also, the “V0.5 of inactivation after toxin” value with hNav 1.2 was -56.9 ± 0.2 mV.

B2: Chirp9 (peptide)
chain: KEGYIVDYHTGCKYTCAKLGDNDYCVRECRLRYYQSAHGYCYAFACWCTHLYEAAVVWPLPNKRCK-NH2
modifications: disulfide (positions not given here); also: four disulfide bridges, pairing not given here
Take B2: in the series with CD1 strain albino mice, the “symptoms in affected animals” value is “hyperexcitability, tremors, piloerection, hypersalivation, transient paralysis, dyspnea, motor incoordination, severe respiratory distress, and, ultimately, death”; the “time to death after injection” value is recorded as “approximately 20 min”; the “lethality in murine models” value is given as “pronounced lethality”; the Toxicity result is given as “Lethal”. Also, the “lethality in murine models” value in the series with CD1 strain albino mice (listed as FII.9) is given as “particularly lethal effects”. Also, in the series on hNav 1.2, the effect on inactivation entry is “shifted inactivation to more negative potential”, the “I/Imax (residual peak current)” value stood at 0.85 ± 0.07, the “slope of activation after toxin” value was 10.8 ± 0.4 and the “V0.5 of activation after toxin” value was -26.8 ± 0.5 mV. In the series on hNav 1.2, the “slope of inactivation after toxin” value amounted to 7.6 ± 0.4 and the “V0.5 of inactivation after toxin” value is on record as -61.8 ± 0.4 mV.

The values are drawn from publication PMC12737490, “Beta Toxins Isolated from the Scorpion Centruroides hirsutipalpus (Scorpiones; Buthidae) Affect the Function of Sodium Channels of Mammals” (Toxins, 2025).
